B3: tag-less CEACAM1 N-terminal domain, unglycosylated (domain or fragment, human)
chain: AQLTTESMPFNVAEGKEVLLLVHNLPQQLFGYSWYKGERVDGNRQIVGYAIGTQQATPGPANSGRETIYPNASLLIQNVTQNDTGFYTLQVIKSDLVNEEATGQFHVY
notes: CEACAM1, human, N-terminal IgV-like domain, tag-less; also called rCEACAM1-N; CC1-N; source: E. coli (pET21d), purified
B4: IgI3 domain of R28 protein, recombinant, as used in ITC (domain or fragment)
chain: KYSPEAKHRTVEQHAELDAKDSIANTDELPSNSTYNWKNGHKPDTSTSGEKDGIVEVHYPDGTVDDVNVKVTVTSKKTDNTAPTLTVTPEQQTVKVDEDITFTVTVEDENEVELGLDDLKAKYENDIIGARVKIKYLTKEPNKKVMEVTIMKATLADKGAITFTAKDKAGNQAEPKTVTINVLPLK
modifications: Construct limits not printed. 233-418 is the unannotated region between the AlphaC C-terminal domain (ends 232) and the first annotated Rib repeat (starts 419); it should enclose the IgI3 domain …

How the values were obtained:
[1] = target: IgSF (IgI3) domain of β protein, recombinant, as used in ITC (Streptococcus agalactiae (GBS)); assay: ITC; iTC200, 25°C, 30 mM Tris-HCl, 150 mM NaCl, pH 7.5; typically 500 µM unglycosylated CEACAM-N domain in the syringe, 50 µM IgI3 domain; duplicates
[2] = target: β-IgI3 V53A, as used in ITC (Streptococcus agalactiae (GBS)); assay: as above
[3] = target: β-IgI3 F42A, as used in ITC (Streptococcus agalactiae (GBS)); assay: as above
[4] = target: β-IgI3 D55A, as used in ITC (Streptococcus agalactiae (GBS)); assay: as above
[5] = target: T1, tag-less unglycosylated CEACAM1 N-terminal domain (rCEACAM1-N, pET21d) (human, UniProt P13688 34-141); assay: ITC; iTC200, 25 °C, 16 injections of 2.42 µL; typically 500 µM unglycosylated CEACAM-N in the syringe and 50 µM β-IgSF/β-IgI3; 30 mM Tris-HCl, 150 mM NaCl, pH 7.5; duplicates; settings: both partners purified
T1 construct: N-terminal IgV-like domain of human CEACAM1; also called rCC1-N; CC1-N; source: E. coli, pET21d, purified as in Bonsor et al, 2015a
T1 sequence: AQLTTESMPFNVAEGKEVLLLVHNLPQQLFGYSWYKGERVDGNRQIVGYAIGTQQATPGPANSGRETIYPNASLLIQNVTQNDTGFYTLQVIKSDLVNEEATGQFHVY

[6] = target: B4; assay: ITC; iTC200, 25°C, 30 mM Tris-HCl, 150 mM NaCl, pH 7.5; typically 500 µM unglycosylated CEACAM-N domain in the syringe, 50 µM IgI3 domain; duplicates; settings: both partners purified
[7] = target: B3; assay: as above; settings: both partners purified

Molecule “CEACAM5 N-terminal domain, unglycosylated (domain or fragment)” has a Kd [1] of 152 nM.

For “tag-less CEACAM1 N-terminal domain, unglycosylated (from UniProt P13688 34-141) (domain or fragment)”, the Kd [2] was 562 nM, the Kd [1] was 96 nM and the Kd [3] was 16 nM. It also gave a Kd [4] of 690 nM.

Molecule “tag-less CEACAM1-N L95A, unglycosylated (from UniProt P13688 34-141) (domain or fragment)” has a Kd [1] of 1350 nM.

Molecule “tag-less CEACAM1-N N97A, unglycosylated (from UniProt P13688 34-141) (domain or fragment)” has a Kd [1] of 490 nM.

With “tag-less CEACAM1-N Q44A, unglycosylated (from UniProt P13688 34-141) (domain or fragment)” the Kd [1] was 996 nM.

“tag-less CEACAM1-N V96A, unglycosylated (from UniProt P13688 34-141) (domain or fragment)” was tested, and the Kd [1] was 370 nM.

B1: β-IgI3 L45A (rβIgI3ΔL45A-His) (domain or fragment)
chain: ANENNQQKIELTVSPENITVYEGEDVKFTVTAKSDSKTTLDFSDALTKYNPSVSDRISTNYKTNTDNHKIAEITIKNLKLNESQTVTLKAKDDSGNVVEKTFTITVQKKEEKQ
notes: the substitution is still to be applied; its number counts on the domain's own 1-113; source: E. coli RG (Rosetta Gami), purified (Nickel column)
B1 showed a Kd [5] of 234 nM.

B2: β-IgI3 S52A (rβIgI3ΔS52A-His) (domain or fragment)
chain: ANENNQQKIELTVSPENITVYEGEDVKFTVTAKSDSKTTLDFSDLLTKYNPAVSDRISTNYKTNTDNHKIAEITIKNLKLNESQTVTLKAKDDSGNVVEKTFTITVQKKEEKQ
notes: as for B1
In the case of B2, the Kd [5] is reported as 85 nM.

For B3, the dH [6] was -4.8 ± 0.3 kcal/mol.

B4 showed a Kd [7] of 1050 ± 18 nM.
